Assay [1] has as its target T1, human CCR2 (human, UniProt O18793 1-360 (rhesus entry)).
T1 construct: On primary human monocytes/PBMC and on human-CCR2 transfected CHO cells; also called C-C Motif Chemokine Receptor 2; CD192
T1 chain: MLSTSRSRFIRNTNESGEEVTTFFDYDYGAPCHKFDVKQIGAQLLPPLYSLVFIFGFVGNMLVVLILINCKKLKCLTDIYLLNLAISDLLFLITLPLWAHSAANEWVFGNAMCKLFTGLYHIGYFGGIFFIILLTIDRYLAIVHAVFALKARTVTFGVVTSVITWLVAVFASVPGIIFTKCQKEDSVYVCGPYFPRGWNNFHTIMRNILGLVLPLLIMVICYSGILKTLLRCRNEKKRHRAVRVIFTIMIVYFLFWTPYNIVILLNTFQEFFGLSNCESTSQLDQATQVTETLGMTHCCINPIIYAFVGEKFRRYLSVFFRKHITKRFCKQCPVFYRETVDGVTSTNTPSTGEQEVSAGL
The experiment in a line: cell binding, human monocytes.

Assay [2] addresses T2, Marmoset monkey (Callithrix jacchus) CCR2 (Marmoset monkey (Callithrix jacchus), UniProt O18793 1-360).
T2 construct: On primary marmoset monocytes (marmoset blood/PBMC); they may hold print errors; also called marmoset CCR2; marmoset CCR2b
T2 chain: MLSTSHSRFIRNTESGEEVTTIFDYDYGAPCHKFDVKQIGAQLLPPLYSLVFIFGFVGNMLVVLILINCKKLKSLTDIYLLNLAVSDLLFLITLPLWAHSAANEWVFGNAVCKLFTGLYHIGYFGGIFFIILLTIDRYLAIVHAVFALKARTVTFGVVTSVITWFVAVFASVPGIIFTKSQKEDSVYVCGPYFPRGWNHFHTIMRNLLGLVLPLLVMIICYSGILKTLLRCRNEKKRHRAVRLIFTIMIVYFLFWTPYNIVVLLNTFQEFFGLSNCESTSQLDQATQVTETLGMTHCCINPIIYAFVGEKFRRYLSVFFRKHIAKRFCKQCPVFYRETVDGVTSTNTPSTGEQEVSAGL
The experiment in a line: cell binding, primary marmoset monocytes.

Assay [3] concerns the target T2, Marmoset monkey (Callithrix jacchus) …. Put plainly: cell binding, primary marmoset monocytes (marmoset blood).
For assay [4], the target named is T1, human CCR2. Put plainly: cell binding, human PBMCs.
The target in assay [5] is T1, human CCR2. The experiment in a line: cell binding, primary human monocytes.

B1: DOC2 chim. (antibody, human IgG1, kappa, V domains shown)
VH: EVQLVESGGGLVKPGGSLKLSCVASGFTLSNYAMSWVRQSPEKRLEWVAEVSSSGIYIYYSDTVTGRFSISRDNAKNTLYLEMSSLRSEDTAIYYCARDRYAYAMDYWGHGTSVIVSS
VL: DIVMTQSPSSLAISVGQRVTLSCKSSQSLLNSYNQKNSLAWYQQKPGQSPKLLVYFASTRESGVPDRFIGSGSGTYFTLTITSVQAGDLADYFCQQHYSNPRTFGGGTRLEIKR
For the molecule B1, in assay [1], the binding result is “binds”.

B2: DOC2-ChXRKA (antibody, human IgG1, kappa, V domains shown)
VH: EVQLVESGGGLVKPGGSLKLSCVASGFTLSNYAMSWVRQSPEKRLEWVAEVSSSGIYIYYSDTVTGRFSISRDNAKNTLYLEMSSLRSEDTAIYYCARDRYAYAMDYWGHGTSVIVSS
VL: DIVMTQSPDSLAVSLGERATINCKSSQSLLNSYNQKNSLAWYQQKPGQPPKLLIYFASTRESGVPDRFSGSGSGTDFTLTISSLQAEDVAVYYCQQHYSNPRTFGGGTKLEIKR
Consider B2, for which the binding result in assay [2] is listed as “no binding”.

B3: DOC3-RHLXRKA (antibody, human IgG1, kappa, V domains shown)
VH: QVQLQESDPGLVKPSETLSLTCTVSGFSISRYDLSWIRQPPGKGLEWIGVIWTGGGTNYNSAFMSRLTISKDTSKNQVSLKLSSVTAADTAVYYCARENYYNRRGYFDVWGQGTMVTVSS
VL: EIVLTQSPATLSLSPGERATLSCSASSSVSYMHWFQQKPGQAPRLLIYLTSNLASGIPARFSGSGSGTDFTLTISSLEPEDFAVYYCQQRSGSPPTFGPGTKLDIKR
In the case of B3, the binding result in assay [3] is “no binding”; in assay [4] it was “binds”.

B4: DOC3-RH09XRKA (antibody, human IgG1, kappa, V domains shown)
VH: EVQLVESGGGLVQPGGSLRLSCAVSGFSLTRYDLSWVRQAPGKGLEWLGVIWTGGGTNYNSAFMSRFSISKDNSKNTVFLQMNSLRAEDTAVYYCARENYYNRRGYFDVWGQGTTVTVSS
VL: EIVLTQSPATLSLSPGERATLSCSASSSVSYMHWFQQKPGQAPRLLIYLTSNLASGIPARFSGSGSGTDFTLTISSLEPEDFAVYYCQQRSGSPPTFGPGTKLDIKR
Take B4: the binding result in assay [2] is listed as “no binding”; in assay [5], “binds”.

B5: DOC3-RH03XRKA (antibody, human IgG1, kappa, V domains shown)
VH: EVQLVESGGGLVQPGGSLRLSCAVSGFSLTRYDLSWVRQAPGKGLEWLGVIWTGGGTNYNSAFMSRLTISRDNSKNTLYLQMNSLRAEDTAVYYCVRENYYNRRGYFDVWGQGTTVTVSS
VL: EIVLTQSPATLSLSPGERATLSCSASSSVSYMHWFQQKPGQAPRLLIYLTSNLASGIPARFSGSGSGTDFTLTISSLEPEDFAVYYCQQRSGSPPTFGPGTKLDIKR
On to B5, for which the binding result in assay [3] was “no binding”.

B6: DOC3-RH09XRKC (antibody, human IgG1, kappa, V domains shown)
VH: EVQLVESGGGLVQPGGSLRLSCAVSGFSLTRYDLSWVRQAPGKGLEWLGVIWTGGGTNYNSAFMSRFSISKDNSKNTVFLQMNSLRAEDTAVYYCARENYYNRRGYFDVWGQGTTVTVSS
VL: QIVLTQSPATLSLSPGERATLSCSASSSVSYMHWFQQKPGQAPRLLIYLTSNLASGVPARFSGSGSGTDFTLTISSLEPEDFAVYYCQQRSGSPPTFGPGTKLDIKR
On to B6, for which the binding result in assay [2] was “no binding”; in assay [5], “binds”.

B7: DOC2-RHBXRKB (antibody, human IgG1, kappa, V domains shown)
VH: EVQLVESGGGVVQPGRSLRLSCAASGFTLSNYAMSWVRQAPGKGLEWVAEVSSSGIYIYYSDTVTGRFSISRDNSKNTLYLQMNSLRAEDTAVYYCARDRYAYAMDYWGQGTLVIVSS
VL: DIVMTQSPDSLAVSLGERATINCKSSQSLLNSYNQKNSLAWYQQKPGQPPKLLVYFASTRESGVPDRFSGSGSGTDFTLTISSLQAEDVAVYFCQQHYSNPRTFGGGTKLEIKR
notes: The number agrees with the antibody's name and was used
Turning to B7, the binding result in assay [2] is listed as “no binding”; in assay [5] it was “binds”.

B8: DOC2-RHAXRKB (antibody, human IgG1, kappa, V domains shown)
VH: EVQLVESGGGVVQPGRSLRLSCAASGFTLSNYAMSWVRQAPGKGLEWVAEVSSSGIYIYYSDTVTGRFTISRDNSKNTLYLQMNSLRAEDTAVYYCARDRYAYAMDYWGQGTLVTVSS
VL: DIVMTQSPDSLAVSLGERATINCKSSQSLLNSYNQKNSLAWYQQKPGQPPKLLVYFASTRESGVPDRFSGSGSGTDFTLTISSLQAEDVAVYFCQQHYSNPRTFGGGTKLEIKR
Turning to B8, the values for the binding result in assay [2] and in assay [5] were “no binding” and “binds”, respectively.

B9: DOC2-RHBXRKC (antibody, human IgG1, kappa, V domains shown)
VH: EVQLVESGGGVVQPGRSLRLSCAASGFTLSNYAMSWVRQAPGKGLEWVAEVSSSGIYIYYSDTVTGRFSISRDNSKNTLYLQMNSLRAEDTAVYYCARDRYAYAMDYWGQGTLVIVSS
VL: DIVMTQSPDSLAVSLGERATINCKSSQSLLNSYNQKNSLAWYQQKPGQPPKLLVYFASTRESGVPDRFIGSGSGTYFTLTISSLQAEDVAVYFCQQHYSNPRTFGGGTKLEIKR
Consider B9, for which the binding result in assay [2] is “no binding”; in assay [5], “binds”.

B10: DOC2-RHAXRKA (antibody, human IgG1, kappa, V domains shown)
VH: EVQLVESGGGVVQPGRSLRLSCAASGFTLSNYAMSWVRQAPGKGLEWVAEVSSSGIYIYYSDTVTGRFTISRDNSKNTLYLQMNSLRAEDTAVYYCARDRYAYAMDYWGQGTLVTVSS
VL: DIVMTQSPDSLAVSLGERATINCKSSQSLLNSYNQKNSLAWYQQKPGQPPKLLIYFASTRESGVPDRFSGSGSGTDFTLTISSLQAEDVAVYYCQQHYSNPRTFGGGTKLEIKR
notes: also called DOC2-reshaped
In the case of B10, the binding result in assay [5] was “binds”.

B11: DOC2-RHBXRKA (antibody, human IgG1, kappa, V domains shown)
VH: EVQLVESGGGVVQPGRSLRLSCAASGFTLSNYAMSWVRQAPGKGLEWVAEVSSSGIYIYYSDTVTGRFSISRDNSKNTLYLQMNSLRAEDTAVYYCARDRYAYAMDYWGQGTLVIVSS
VL: DIVMTQSPDSLAVSLGERATINCKSSQSLLNSYNQKNSLAWYQQKPGQPPKLLIYFASTRESGVPDRFSGSGSGTDFTLTISSLQAEDVAVYYCQQHYSNPRTFGGGTKLEIKR
For the molecule B11, the binding result in assay [2] is given as “no binding”; in assay [5] it was “binds”.

B12: DOC3 chim. (antibody, human IgG1, kappa, V domains shown)
VH: QVQLKESGPGLVAPSQSLSITCTVSGFSLTRYDLSWIRQPPGKGLQWLGVIWTGGGTNYNSAFMSRLSIRKDNSKSQVFLKMNSLQTDDTAIYYCVRENYYNRRGYFDVWGAGTTVTVSS
VL: QIVLTQSPAIMSTSPGEKVTITCSASSSVSYMHWFQQKPGTSPKLWIYLTSNLASGVPARFSGSGSGTSYSLTINRMEAEDAATYYCQQRSGSPPTFGTGTKLELRR
For the molecule B12, the binding result in assay [1] is “binds”.

Source of the values: patent publication US20260193365A1 (GRANITE BIO, published 2026).
